Experimental data taken from the DeepSol protein solubility set.

assay: soluble on expression in E. coli; label from the status in PepcDB or PDB records

Soluble on expression in E. coli, soluble:
MSLESIKKRAYEIENELGKEIEEVCNFIFNNPELGEEEYISSKYLVEKMKEYGFDTVYPYCNMETAFRAELGDNDGPTIAFLAEYDALPGYGENKEPAHACGHNWIAASTLGACIVLSKLKENFKGKIVLIGTPAEETTGGKCDLVKAGAFDDVDVSYQMHIEAFNNINCKALAIDSLEFSFEGVSAHAASHPHMGVNALDAVQLTFAGINALRQHVKSDVRIHGIVSNGGEAPNIVPEKAACKFFVRAAERSYLDEVTKKVINCAKGAELMTGAKLSYRYFENSFDNIINNKVLQKITKNNLIEAGITDILEGKDGPVGSTDIGNVSQVCPTMYTEIALDISPMVYVHEKEFLNYANSEEAYDKLHKAVKAMVGCALEIYLEDGLLDEIKKNHLNEGHHHHHH, MIWRLIMLIDRFGRPVTNLRISLTKECNLSCFYCHREGQLDGERFMTPEEIERIVRVASRLGIKKVKLTGGEPTIRKDILEIIRRLKPYVVDLSLTTNGTTMYVLAEKLKEAGLDRVNISLDTLDRKKYKMITGFNVLDEVIKGIKKATKLFYPVKLNMVVMKGVNDDEIWDMMRFAGEVNAILQLIELEVPREMENSQFFKDFFYPLKPLEEKFEKLAVKVKERRMHRRRKYFIPIDGKIVEVEVVRSMHNTVFCMNCTRLRLTADGYLKTCLLRRDDLIDILGPLRNGASDADLIEIFKRAVLLRRPYWTSNSSLEHHHHHH, GGHTVPKPFNLSKGKRKHEEASDYVSTAEQVIAFYKRTPARYHLRSRQREMEGPSPVKMIKTKLTNPKTPLLQTKGRHRPV, MAKPVVIGSRSFRTQSSALDHYKALLHRYQDGQRIADPADHTDLVALIERFDPVLDAVGEPAKGAGQIAHFERRLNTGIGWSTPGFWVVRQDGTETDFSYIDAVKGRPKGRSQDFYNACRQAVALDLVLAKKQAFAQYGDDQGRVECELTGKMVTIDDAHLDHAWPYFSHMVSGFRAARGWSRDIPDGIVSTPADGQTTATFLDSAVTEAFRAFHHDQAVLRVLSREANLQTASSARRPKVARPVRLALEHHHHHH, MSLPQPKKDKPDTPLRSDAQRNRERILAVATEELTHCANAPLSAIAKKAGVGQGTFYRNFPNREALVLEIYRYGMQQVAEAAPEMLATGEPDLALRQWMDRLAEFAMTKAGLADAIRLVTSAPGAPEKPRPTPLEDAAELLLRANHEAGTIRPGVTGDDFFLVLGGLWLIDPGENWQPRVTRFLDLVMDGLRAGAPGREGHHHHHH, MRITIVTIFPEMVEVIKKYGVIARAVERGIVEINVENLRDYTTDRHRTVDDYQYGGGYGMVMKPEPFFRFYESYVEKYGKPYVILTSPQGRIFNYKIAEELSKKDDIVIFCGRYEGIDERVMSIVDDEISIGDYILTGGELPAMVITDAVVRLVPGVVERESVERESFHQGLLDHPVYTRPYEYKGMKVPDVLLSGDHEKVELWRRKESIKKTLAKRPDLFLAKELDEMDKLAIIELFRELMEKC, MARIFTYPLARKRIRMHKPDDKQYDATYFTRWYRDAGLADPARLRRKVALAVAQAEYYLERPIRTVLDVGCGEAAWRAPLLALRPKLQYLGFDSSEYAVQRYGRSRQIHPARFGDFAWLRPCAPVDLLICSDVLHYVPTREFNQGLPGLAEMCAGVAFLETFAEEDAFEGDHEGFQARPARWYRRRFASVGFTALGSHCWLSPQLRGETAALEHS, MYRSFFYPTRLALLAVGRNFMPMAWWMPASKEPFRFLLAVDRKNHTLSLLRELSEAALAFYPWEERAWVVRAGYLSGGRVDKARRLGVPLRPACCLAHTQVPEGALAVYEMRVSEWPWDGDHALFMGEVVHVEGSAEAKERPILFLGFRDFATLGERWRFRPGGAKPLPREERGKP, AIAPTATYAALIHADLDVLWGLLLDKLQSDEQFMPGLERAEIVPLSVAEDPTGVARFRQQHDRRLYFSDGRLVEERVTIDEERKNILLELRNDARYTGYVSTVLLPCPFPEATSGAHVLVRTMDWRAKRSLTDDEIEEGELLATKIRESTLRLKHEVESLRWSLDDSKDPDDE, MSLTRPVTLSEPHFSQHTLNKYASLMAQGNGYLGLRASHEEDYTRQTRGMYLAGLYHRAGKGEINELVNLPDILGMEIAINGEVFSLSHEAWQRELDFASGELRRNVVWRTSNGAGYTIASRRFVSADQLPLIALEITITPLDADASVLISTGIDATQTNHGRQHLDETQVRVFGQHLMQGIYTTQDGRSDVAISCCCKVSGDVQQCYTAKERRLLQHTSAQLHAGETVTLQKLVWIDWRDDRQAVLDEWGSASLRQLEICAQQSYDQLLAASTENWRQWWQKRRITVNGGDAHDQQALDYALYHLRIMTPAHDERSSIAAKGLTGEGYKGHVFWDTEVFLLPFHLFSDPTVARSLLRYRWHNLPGAQEKARRSGWQGALFPWESARSGEEETPEFAAINIRTGLRQKVASAQAEHHLVADIAWAVIQYWQTTGDESFIAHEGMALLLETAKFWISRAVRVNDRLEIHDVIGPDEYTEHVNNNAFTSYMARYNVQQALNIARQFGCSDDAFIHRAEMFLKELWMPETQPDGVLPQDDSFMAKPAINLAKYKAAAGKQTILLDYSRAEVNEMQILKQADVVMLNYMLPEQFSAVSCLANLQFYEPRTIHDSSLSKAIHGIVAARCGLLTQSYQFWREGTEIDLGADPHSCDDGIHAAATGAIWLGAIQGFAGVSVRDGELHLNPALPEQWQQLSFPLFWQGCELQVTLDAQRIAIRTSAPVSLRLNGQLISVAEESVFCLGDFILPFNGTATTHQEDEEGHHHHHH, MHHHHHHSHMHHHHHHSHMSKYAELLAIIEELGKEIRPTYAGSKSAMERLKRGIIHARGLVREALAETERNARS, MRVLVTGGAGFIGSHIVEDLLARGLEVAVLDNLATGKRENVPKGVPFFRVDLRDKEGVERAFREFRPTHVSHQAAQASVKVSVEDPVLDFEVNLLGGLNLLEACRQYGVEKLVFASTGGAIYGEVPEGERAEETWPPRPKSPYAASKAAFEHYLSVYGQSYGLKWVSLRYGNVYGPRQDPHGEAGVVAIFAERVLKGLPVTLYARKTPGDEGCVRDYVYVGDVAEAHALALFSLEGIYNVGTGEGHTTREVLMAVAEAAGKAPEVQPAPPRPGDLERSVLSPLKLMAHGWRPKVGFQEGIRLTVDHFRGAV

Soluble on expression in E. coli, not soluble:
MGSDKIHHHHHHMPTINSIQTTVNGVVKIVKPFNNDIAGEQFDPHVLQTLTAFKQPAILENDLAALRSGSLTPAIADPVGDAVTVQSRNITALNRTVSVEWLTPQNVINHTVLVYFHGGAFYGGVPGNNTVLLKLVAAKSHCEILNVDYSLAPEAPAPAGILDGLAIFQYLEQRDAETMITVAGDSAGANVIMAATNLNQQLGSNRINQQLLLYPVTAPNADHAGPLWDLAAFPIIDSQRAILTNYHDLFRQLDSIMTDYYVPENFDSHSPLISPLHQENFTMTPPTTIMVGEFDPFRPQAWAYAQRLAAADTATTFIQYQGLNHAFAPLVDQYWQSQDVAQVMAAALI, MAILAFDLGGSSVKYGVWTGKELTNQGSFPTPGSWEEMKAHLYSVYADKRNESISGVAFSSPGVVDEKSQQILGISAIPYIHHFNIYEELEALFGLPVTIENDANCAGLAEIYEGAAKGKKEVLFVVIGTGIGGAIFRNGELYKGAHLYGGEFGLNFLSNGQTFSEIGTAVKMAQRYCERIGVEKQAVTGEEVFELAQRGDEIAREEVNNFYDYLTQGLFGLQFSYDPEMIVLGGGVSAKEGLLAEINRRMLTHLQTFELKDFVPEIVTCHYQNDANLIGAAANFQAKTNWEL, SIHYTWQNALLDVSERLGVANNSVTLLQQKQANYVRAFADSYDFRTRINQGTPQDELQKWVTEQKKRYSLDFLSFQRVNSMENKFRFMDLTKRESFFDVLNREELEQLDPELAKRAEVPILADGGMEARGLVSRTVIPVYSQANDLIGFLDGGLLLNNSTVLVDQIRDLIYLSDNDRLRPVGTLTVFLDDLRVSTNVPLDSDHRLGRAIGTRVSAEVYNQVLSKGQQWVDRAYVYDAWYITAYQPIKDQYDNVIGMLYTGYLMWPFVKAYMTNIAE, MGSDKIHHHHHHMAQQKDTKKITVFTSTYNRAYILPKLYESLKLQTCKDFEWLVVDDGSEDETSELFDKWLEEDVIEIAYFKKKNGGKHRAINFAASKAQGQLFFIVDSDDYLTLTAVEIICKEWEKVENKKQSAGLCFRKICYNTGKMIGADFPVSPIDASSLTICYKWKIYEDKAEVFKTELIRRFPFPEIEGEKFISEAIVWNKISVCDSPLLRCVNTGIYMCEYLPDGLTANFIKLMKRNPKGGILYYKSLFNLSCIRKNPIDILKISLRLSQCIIYSFLRCFGSYL, MTETEQTTAPIYPLKRNWTWWYLNDERNKSWEDRLKKVYTFNTVSEFWALYDAIRPPSGLNALCDYNVFRDDIQPMWEVPENSNGGRWLIVIDKGKTPEMVDAIWLEILMALVGEQFGKDMESICGLVCNVRGKGSKISVWTKDCNDDETNMRIGVVLKEKLMAASKDHSKPLFDVIRYEDHESCQKKTSSVVKAKLSLHSSDAPVAEKSAV, MSLAYKPDDAAPFRSVTRQVLFSDLRLGCEWRYFEVAEGGYSTLERHQHVHATMIHRGRGQCLVGDVISDVAVGDLVFIPPMTWHQFRANAGDVLGFLCLVNADRDREGHHHHHH, MGSDKIHHHHHHMQKIFDAHLHLWDLEKIPISWIKDDEKLEQNYDFFRMKQEYKEFEFIGAMYVEVNSDDLEKEALFALEQKKLHNLLFCLADFKHKEELSSFREVMHTSKKGAKRLFEADFEEKIEILKTFNIPFEACIKNEELGFLEKFLSKNPNLKVVLNHLGSPKINRLNEYKKDLSFLKKFQNLYIKLSIPDGFSQETPKEFIFELFAFLKENFSENKFIFGSNYPVAKITPAKWAKLIIESKIFDDLDKIFYKNALLIYKGG, MFVEALKRQNPALISAALSLWQQGKIAPDSWVIDVDQILENGKRLIETARLYGIELYLMTKQFGRNPWLAEKLLALGYSGIVAVDYKEARVMRRAGLPVAHQGHLVQIPCHQVADAVEQGTDIITVFTLDKAREVSAAAVKAGRVQPVLLKVYSDDDFLYPGQESGFVQHSLHEVIAEIKKLPGLHLAGLTHFPCLLWDEAAGKVLPTPNLHTLVQARDQLAKSGIAIEQLNVPSATSCTSLPLLAEYGATHAEPGHALTGTIPANQQGDQPERIAMLWLSEISHHFRGDSYCYGGGYYRRGHAQHALVFTPENQKITETNLKTVDDSSIDYTLPLAGEYPVSSAVVLCFRTQIFVTRSDVVLVSGIQRGEPEIVGRYDSLGNPLEA, MGSDKIHHHHHHMGIRNSKTFTSTDIATYYDVSEDHYMYFWDLNQSHSLHYGYWDASTKTFREALANINRVLAEKASITAGTRVLDAGCGVGGSSIWLAKNKQANVTGITVSKKQAARANTSAAAVNPGGTAVFDVQDYTNTPYHSESFDVVWAIESVCHAANKEDFIKEAYRLLKPGGQLIMADFFIVKDGNADDQRSIDAWGHGWAVPFFEKKDAFQHMLLKAGFNTADMIDSTEHIRRSAKRLYYAFFPGWIISKLYNLVNRRTTEFSKNNVYTAYYQYKTLKKELWKYYIVHAKK, MASKLLQLKSKACEASKFVSKHGTTYYKQLLDKNKMYIQEPATIEKCNELSKQLLYTRLASIPGRSESFWKEVNHVKGLWKNRADLKVEDAGIAALFGLECFAWYCAGEIVGRGFTFTGYYP, MGSDKIHHHHHHMDWTNIPPLYALKAFESAAKHQSFTLAASELFISQSAISKHINTIEIFFGRKLFYRKGPKVFLTKEGESFAGDLRHAFEILSKACENIHRAGIVLTISSPYTFSIRQFIPVLRKYKNQDGFPIVTVETINDDYSHSIVNLKNHDATVKYGDGKFSDEWNCTLLSPECLIVVVSPKLLHLFEKDNRILIDLVYVKSRELDWFSWCEESRLKERFQVINKYEFESMDSAINAVIKGLGVAVVDIGMVCDELMDGVLLTPFKFSFYSGRGYYFLRGGDDDNYLSSLLECVRLDLSGRGLAELCFNDKCDMGNCRLAATKKITK
